In patent US12099068B2, “Biomarkers for graft-versus-host disease” (Incyte Corporation, priority 2018, dated 2024):

B1: IGFBP-2 (protein, UniProt P18065 36-325, looked up)
Insulin-like growth …: AEVLFRCPPCTPERLAACGPPPVAPPAAVAAVAGGARMPCAELVREPGCGCCSVCARLEGEACGVYTPRCGQGLRCYPHPGSELPLQALVMGEGTCEKRRDAEYGASPEQVADNGDDHSEGGLVENHVDSTMNMLGGGGSAGRKPLKSGMKELAVFREKVTEQHRQMGKGGKHHLGLEEPKKLRPPPARTPCQQELDQVLERISTMRLPDERGPLEHLYSLHIPNCDKHGLYNLKQCKMSLNGQRGECWCVNPNTGKLIQGAPTIRGDPECHLFYNEQQEARGVHTQRMQ
B2: SPON2 (protein, UniProt Q9BUD6 27-331, looked up)
Spondin-2: QPLGGESICSARALAKYSITFTGKWSQTAFPKQYPLFRPPAQWSSLLGAAHSSDYSMWRKNQYVSNGLRDFAERGEAWALMKEIEAAGEALQSVHAVFSAPAVPSGTGQTSAELEVQRRHSLVSFVVRIVPSPDWFVGVDSLDLCDGDRWREQAALDLYPYDAGTDSGFTFSSPNFATIPQDTVTEITSSSPSHPANSFYYPRLKALPPIARVTLVRLRQSPRAFIPPAPVLPSRDNEIVDSASVPETPLDCEVSLWSSWGLCGGHCGRLGTKSRTRYVRVQPANNGSPCPELEEEAECVPDNCV
B3: CKAP4 (protein, UniProt Q07065 1-602, looked up)
Cytoskeleton-associated …: MPSAKQRGSKGGHGAASPSEKGAHPSGGADDVAKKPPPAPQQPPPPPAPHPQQHPQQHPQNQAHGKGGHRGGGGGGGKSSSSSSASAAAAAAAASSSASCSRRLGRALNFLFYLALVAAAAFSGWCVHHVLEEVQQVRRSHQDFSRQREELGQGLQGVEQKVQSLQATFGTFESILRSSQHKQDLTEKAVKQGESEVSRISEVLQKLQNEILKDLSDGIHVVKDARERDFTSLENTVEERLTELTKSINDNIAIFTEVQKRSQKEINDMKAKVASLEESEGNKQDLKALKEAVKEIQTSAKSREWDMEALRSTLQTMESDIYTEVRELVSLKQEQQAFKEAADTERLALQALTEKLLRSEESVSRLPEEIRRLEEELRQLKSDSHGPKEDGGFRHSEAFEALQQKSQGLDSRLQHVEDGVLSMQVASARQTESLESLLSKSQEHEQRLAALQGRLEGLGSSEADQDGLASTVRSLGETQLVLYGDVEELKRSVGELPSTVESLQKVQEQVHTLLSQDQAQAARLPPQDFLDRLSSLDNLKASVSQVEADLKMLRTAVDSLVAYSVKIETNENNLESAKGLLDDLRNDLDRLFVKVEKIHEKV
B4: CLM-6 (protein, UniProt Q08708 21-224, looked up)
CMRF35-like molecule 6: GYFPLSHPMTVAGPVGGSLSVQCRYEKEHRTLNKFWCRPPQILRCDKIVETKGSAGKRNGRVSIRDSPANLSFTVTLENLTEEDAGTYWCGVDTPWLRDFHDPIVEVEVSVFPAGTTTASSPQSSMGTSGPPTKLPVHTWPSVTRKDSPEPSPHPGSLFSNVRFLLLVLLELPLLLSMLGAVLWVNRPQRSSRSRQNWPKGENQ
B5: IL-6RA (protein, UniProt P08887 20-468, looked up)
Interleukin-6 receptor …: LAPRRCPAQEVARGVLTSLPGDSVTLTCPGVEPEDNATVHWVLRKPAAGSHPSRWAGMGRRLLLRSVQLHDSGNYSCYRAGRPAGTVHLLVDVPPEEPQLSCFRKSPLSNVVCEWGPRSTPSLTTKAVLLVRKFQNSPAEDFQEPCQYSQESQKFSCQLAVPEGDSSFYIVSMCVASSVGSKFSKTQTFQGCGILQPDPPANITVTAVARNPRWLSVTWQDPHSWNSSFYRLRFELRYRAERSKTFTTWMVKDLQHHCVIHDAWSGLRHVVQLRAQEEFGQGEWSEWSPEAMGTPWTESRSPPAENEVSTPMQALTTNKDDDNILFRDSANATSLPVQDSSSVPLPTFLVAGGSLAFGTLLCIAIVLRFKKTWKLRALKEGKTSMHPPYSLGQLVPERPRPTPVLVPLISPPVSPSSLGSDNTSSHNRPDARDPRSPYDISNTDYFFPR
B6: CDIC (protein, UniProt P29017 18-333, looked up)
T-cell surface glycoprotein …: NADASQEHVSFHVIQIFSFVNQSWARGQGSGWLDELQTHGWDSESGTIIFLHNWSKGNFSNEELSDLELLFRFYLFGLTREIQDHASQDYSKYPFEVQVKAGCELHSGKSPEGFFQVAFNGLDLLSFQNTTWVPSPGCGSLAQSVCHLLNHQYEGVTETVYNLIRSTCPRFLLGLLDAGKMYVHRQVRPEAWLSSRPSLGSGQLLLVCHASGFYPKPVWVTWMRNEQEQLGTKHGDILPNADGTWYLQVILEVASEEPAGLSCRVRHSSLGGQDIILYWGHHFSMNWIALVVIVPLVILIVLVLWFKKHCSYQDIL
B7: LAMP3 (protein, UniProt Q9UQV4 28-416, looked up)
Lysosome-associated membrane …: KAFPETRDYSQPTAAATVQDIKKPVQQPAKQAPHQTLAARFMDGHITFQTAATVKIPTTTPATTKNTATTSPITYTLVTTQATPNNSHTAPPVTEVTVGPSLAPYSLPPTITPPAHTTGTSSSTVSHTTGNTTQPSNQTTLPATLSIALHKSTTGQKPVQPTHAPGTTAAAHNTTRTAAPASTVPGPTLAPQPSSVKTGIYQVLNGSRLCIKAEMGIQLIVQDKESVFSPRRYFNIDPNATQASGNCGTRKSNLLLNFQGGFVNLTFTKDEESYYISEVGAYLTVSDPETIYQGIKHAVVMFQTAVGHSFKCVSEQSLQLSAHLQVKTTDVQLQAFDFEDDHFGNVDECSSDYTIVLPVIGAIVVGLCLMGMGVYKIRLRCQSSGYQRI
B8: C1QTNF1 (protein, UniProt Q9BXJ1 26-281, looked up)
Complement C1q tumor necrosis …: RVPHVQGEQQEWEGTEELPSPPDHAERAEEQHEKYRPSQDQGLPASRCLRCCDPGTSMYPATAVPQINITILKGEKGDRGDRGLQGKYGKTGSAGARGHTGPKGQKGSMGAPGERCKSHYAAFSVGRKKPMHSNHYYQTVIFDTEFVNLYDHFNMFTGKFYCYVPGLYFFSLNVHTWNQKETYLHIMKNEEEVVILFAQVGDRSIMQSQSLMLELREQDQVWVRLYKGERENAIFSEELDTYITFSGYLVKHATEP
B9: Gal-4 (protein, UniProt P56470 1-323, looked up)
Galectin-4: MAYVPAPGYQPTYNPTLPYYQPIPGGLNVGMSVYIQGVASEHMKRFFVNFVVGQDPGSDVAFHFNPRFDGWDKVVFNTLQGGKWGSEERKRSMPFKKGAAFELVFIVLAEHYKVVVNGNPFYEYGHRLPLQMVTHLQVDGDLQLQSINFIGGQPLRPQGPPMMPPYPGPGHCHQQLNSLPTMEGPPTFNPPVPYFGRLQGGLTARRTIIIKGYVPPTGKSFAINFKVGSSGDIALHINPRMGNGTVVRNSLLNGSWGSEEKKITHNPFGPGQFFDLSIRCGLDRFKVYANGQHLFDFAHRLSAFQRVDTLEIQGDVTLSYVQI
B10: ATG4A (protein, UniProt Q8WYN0 1-398, looked up)
Cysteine protease ATG4A: MESVLSKYEDQITIFTDYLEEYPDTDELVWILGKQHLLKTEKSKLLSDISARLWFTYRRKFSPIGGTGPSSDAGWGCMLRCGQMMLAQALICRHLGRDWSWEKQKEQPKEYQRILQCFLDRKDCCYSIHQMAQMGVGEGKSIGEWFGPNTVAQVLKKLALFDEWNSLAVYVSMDNTVVIEDIKKMCRVLPLSADTAGDRPPDSLTASNQSKGTSAYCSAWKPLLLIVPLRLGINQINPVYVDAFKECFKMPQSLGALGGKPNNAYYFIGFLGDELIFLDPHTTQTFVDTEENGTVNDQTFHCLQSPQRMNILNLDPSVALGFFCKEEKDFDNWCSLVQKEILKENLRMFELVQKHPSHWPPFVPPAKPEVTTTGAEFIDSTEQLEEFDLEEDFEILSV
B11: PGLYRP1 (protein, UniProt O75594 22-196, looked up)
Peptidoglycan recognition …: QETEDPACCSPIVPRNEWKALASECAQHLSLPLRYVVVSHTAGSSCNTPASCQQQARNVQHYHMKTLGWCDVGYNFLIGEDGLVYEGRGWNFTGAHSGHLWNPMSIGISFMGNYMDRVPTPQAIRAAQGLLACGVAQGALRSNYVLKGHRDVQRTLSPGNQLYHLIQNWPHYRSP
B12: CLEC10A (protein, UniProt Q8IUN9 1-316, looked up)
C-type lectin domain family …: MTRTYENFQYLENKVKVQGFKNGPLPLQSLLQRLCSGPCHLLLSLGLGLLLLVIICVVGFQNSKFQRDLVTLRTDFSNFTSNTVAEIQALTSQGSSLEETIASLKAEVEGFKQERQAGVSELQEHTTQKAHLGHCPHCPSVCVPVHSEMLLRVQQLVQDLKKLTCQVATLNNNASTEGTCCPVNWVEHQDSCYWFSHSGMSWAEAEKYCQLKNAHLVVINSREEQNFVQKYLGSAYTWMGLSDPEGAWKWVDGTDYATGFQNWKPGQPDDWQGHGLGGGEDCAHFHPDGRWNDDVCQRPYHWVCEAGLGQTSQESH
B13: COCH (protein, UniProt O43405 25-550, looked up)
Cochlin: EGAAPIAITCFTRGLDIRKEKADVLCPGGCPLEEFSVYGNIVYASVSSICGAAVHRGVISNSGGPVRVYSLPGRENYSSVDANGIQSQMLSRWSASFTVTKGKSSTQEATGQAVSTAHPPTGKRLKKTPEKKTGNKDCKADIAFLIDGSFNIGQRRFNLQKNFVGKVALMLGIGTEGPHVGLVQASEHPKIEFYLKNFTSAKDVLFAIKEVGFRGGNSNTGKALKHTAQKFFTVDAGVRKGIPKVVVVFIDGWPSDDIEEAGIVAREFGVNVFIVSVAKPIPEELGMVQDVTFVDKAVCRNNGFFSYHMPNWFGTTKYVKPLVQKLCTHEQMMCSKTCYNSVNIAFLIDGSSSVGDSNFRLMLEFVSNIAKTFEISDIGAKIAAVQFTYDQRTEFSFTDYSTKENVLAVIRNIRYMSGGTATGDAISFTVRNVFGPIRESPNKNFLVIVTDGQSYDDVQGPAAAAHDAGITIFSVGVAWAPLDDLKDMASKPKESHAFFTREFTGLEPIVSDVIRGICRDFLESQQ

System: plasma proteins
Assay: Plasma proteins modulated between baseline and day 28 in responders (CR, VGPR, PR; n = 19), Example 6 (Table 13)
Format: in vivo, human
Conditions: plasma protein (OLINK NPX); responders (CR, VGPR, PR; n = 19); itacitinib 200 mg or 300 mg QD with corticosteroids; day 28 vs baseline
Summary of the method: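 Plasma at baseline/screening and day 28 profiled for >1000 proteins by OLINK proximity extension assay, reported as NPX (log2). Steroid-naive and steroid-refractory patients pooled. Paired and unpaired t tests, ANOVA and Pearson correlation applied; significance at P<0.05.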

Molecule	Fold Change, Decreased Expression from Baseline to Day 28	Fold Change, Increased Expression from Baseline to Day 28
B1	−1.2058	–
B2	–	1.095
B3	−1.1904	–
B4	−1.1356	–
B5	−1.1901	–
B6	−1.5651	–
B7	−1.7705	–
B8	−1.2979	–
B9	–	1.4274
B10	−1.3651	–
B11	−1.6181	–
B12	−1.274	–
B13	−1.22	–
